The target of test [1] is recombinant human ROR1 extracellular domain with a C-terminal 6xHis tag (human) (UniProt Q01973). The experiment in a line: SPR (Biacore T200): scFv-mFc captured on anti-mouse IgG chip, ROR1 ECD 6xHis injected, multi-cycle kinetics, 1:1 model.
Test [2] shares this target. Description: SPR (Biacore), scFv-mFc captured on an anti-mouse IgG chip, ROR1 ECD 6xHis injected in a concentration series up to 183 nM, multi-cycle kinetics, 1:1 Binding model, 25 °C.
For test [3] the target is unchanged. The experiment in a line: SPR (Biacore), scFv-mFc captured on an anti-mouse IgG chip, ROR1 ECD 6xHis injected at 183, 61.0, 20.33, 6.78 and 2.26 nM, multi-cycle kinetics, 1:1 Binding model, 25 °C.
For test [4], the target named is T1, human ROR2 expressed on cells of the plasma membrane protein array (human, UniProt Q01974 34-943).
T1 construct: whole, on cells; also called receptor tyrosine kinase-like orphan receptor 2
T1 sequence (Q01974 34-943): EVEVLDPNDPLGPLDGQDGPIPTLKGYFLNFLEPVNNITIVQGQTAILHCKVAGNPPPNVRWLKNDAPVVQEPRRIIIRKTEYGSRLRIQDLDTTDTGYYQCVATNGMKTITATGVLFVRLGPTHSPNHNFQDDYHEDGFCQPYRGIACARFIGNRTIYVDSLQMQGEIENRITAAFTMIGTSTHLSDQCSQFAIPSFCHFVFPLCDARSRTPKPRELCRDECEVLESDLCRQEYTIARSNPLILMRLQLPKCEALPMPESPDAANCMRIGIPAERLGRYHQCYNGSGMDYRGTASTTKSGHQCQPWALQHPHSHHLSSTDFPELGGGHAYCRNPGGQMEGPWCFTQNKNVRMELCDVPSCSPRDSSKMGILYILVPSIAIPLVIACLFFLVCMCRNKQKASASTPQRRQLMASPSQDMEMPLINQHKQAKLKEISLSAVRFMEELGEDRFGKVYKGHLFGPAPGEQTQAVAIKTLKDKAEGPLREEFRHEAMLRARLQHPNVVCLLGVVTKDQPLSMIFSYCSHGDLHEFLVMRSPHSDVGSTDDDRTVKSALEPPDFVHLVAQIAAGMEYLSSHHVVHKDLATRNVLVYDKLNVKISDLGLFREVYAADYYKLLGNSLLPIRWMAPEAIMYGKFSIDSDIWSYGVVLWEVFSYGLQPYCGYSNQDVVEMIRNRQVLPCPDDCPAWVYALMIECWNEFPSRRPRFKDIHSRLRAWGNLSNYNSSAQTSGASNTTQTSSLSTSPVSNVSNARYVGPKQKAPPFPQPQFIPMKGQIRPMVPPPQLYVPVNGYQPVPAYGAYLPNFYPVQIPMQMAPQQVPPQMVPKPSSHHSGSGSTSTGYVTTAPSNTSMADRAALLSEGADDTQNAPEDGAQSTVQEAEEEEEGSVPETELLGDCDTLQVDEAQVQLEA
Description: plasma membrane protein array: immunohistochemistry with scFv-Fc on cells overexpressing individual human membrane proteins, with confirmation screening. As for the experimental part: (§1) Off-target binding was assessed based on a plasma membrane protein array. This chip-based platform contains over 4400 groups of cells genetically engineered to overexpress individual human extracellular membrane proteins that together represent over 75% of the human extracellular proteome. The panel also includes over 1000 tethered secreted protein targets. An scFv-Fc (scFv sequence set forth in SEQ ID NO:118) was generated and used for immunohistochemistry (IHC) against the cells in the array. Confirmation screening was performed.

The target in test [5] is T2, human ROR1 expressed on cells (human, UniProt Q01973 30-937).
T2 construct: also called hROR1; K562-ROR1-TetOn
T2 sequence (Q01973 30-937): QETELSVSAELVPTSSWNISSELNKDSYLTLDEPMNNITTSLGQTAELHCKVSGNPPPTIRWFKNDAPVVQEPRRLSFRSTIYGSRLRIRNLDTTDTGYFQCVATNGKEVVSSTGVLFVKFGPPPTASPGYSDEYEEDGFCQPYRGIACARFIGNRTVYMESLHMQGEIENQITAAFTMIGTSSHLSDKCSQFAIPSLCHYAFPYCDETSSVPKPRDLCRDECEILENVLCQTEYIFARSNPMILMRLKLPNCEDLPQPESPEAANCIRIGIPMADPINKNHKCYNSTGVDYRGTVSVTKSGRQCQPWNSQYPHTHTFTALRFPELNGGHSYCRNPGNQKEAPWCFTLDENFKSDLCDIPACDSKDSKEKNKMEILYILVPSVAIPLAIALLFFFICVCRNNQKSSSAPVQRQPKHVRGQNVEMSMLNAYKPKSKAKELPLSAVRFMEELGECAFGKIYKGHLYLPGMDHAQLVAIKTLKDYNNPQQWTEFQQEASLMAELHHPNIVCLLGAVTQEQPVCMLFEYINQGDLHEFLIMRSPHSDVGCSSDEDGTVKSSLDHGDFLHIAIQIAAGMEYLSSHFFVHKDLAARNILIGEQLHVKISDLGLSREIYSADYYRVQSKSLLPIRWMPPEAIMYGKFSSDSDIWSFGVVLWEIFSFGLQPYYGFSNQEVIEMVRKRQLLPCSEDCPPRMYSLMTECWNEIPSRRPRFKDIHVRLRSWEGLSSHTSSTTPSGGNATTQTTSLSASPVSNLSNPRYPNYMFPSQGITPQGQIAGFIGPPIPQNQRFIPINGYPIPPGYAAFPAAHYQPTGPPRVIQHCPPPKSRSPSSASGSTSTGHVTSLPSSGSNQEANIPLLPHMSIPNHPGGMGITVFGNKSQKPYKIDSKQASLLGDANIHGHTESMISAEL
Description: plasma membrane protein array: immunohistochemistry on cells overexpressing individual human membrane proteins. Here is the method:
as §1

Changes are numbered by the printed parent chain.

Sequence of recombinant human ROR1 extracellular domain with a C-terminal 6xHis tag (human) (Q01973 other isoform, or with tags, fused parts or gaps): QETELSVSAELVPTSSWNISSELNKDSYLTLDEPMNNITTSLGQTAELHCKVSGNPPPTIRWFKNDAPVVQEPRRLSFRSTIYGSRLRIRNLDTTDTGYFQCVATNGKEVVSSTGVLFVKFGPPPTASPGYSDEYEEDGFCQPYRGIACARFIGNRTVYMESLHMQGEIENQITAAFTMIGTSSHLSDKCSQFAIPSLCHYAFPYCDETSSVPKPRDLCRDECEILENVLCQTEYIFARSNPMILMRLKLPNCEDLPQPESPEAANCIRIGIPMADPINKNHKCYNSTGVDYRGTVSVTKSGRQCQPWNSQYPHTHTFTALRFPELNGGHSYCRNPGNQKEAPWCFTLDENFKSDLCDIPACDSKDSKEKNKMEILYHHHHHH

B1: reference R12 scFv fused to murine IgG2a Fc (scFv-mFc) (Fc fusion, part only; not given: murine IgG2a Fc and junction, not shown: another chain or arm of the molecule; a dimerising Fc or GST)
scFv: QEQLVESGGRLVTPGGSLTLSCKASGFDFSAYYMSWVRQAPGKGLEWIATIYPSSGKTYYATWVNGRFTISSDNAQNTVDLQMNSLTAADRATYFCARDSYADDGALFNIWGPGTLVTISSGGGGSGGGGSGGGGSELVLTQSPSVSAALGSPAKITCTLSSAHKTDTIDWYQQLQGEAPRYLMQVQSDGSYTKRPGVPDRFSGSSSGADRYLIIPSVQADDEADYYCGADYIGGYVFGGGTQLTVTG
In the case of B1, in test [1], the dissociation constant (Kd) is 942 pM, the koff is 0.000579 s⁻¹ and the on-rate constant (kon) is 614000 M⁻¹ s⁻¹. In test [2], the Kd came to 942 pM, the dissociation rate constant (koff) amounted to 0.000579 s⁻¹ and the kon is 614000 M⁻¹ s⁻¹.

B2: anti-ROR1 scFv ROR1-2 fused to murine IgG2a Fc (scFv-mFc) (Fc fusion, part only; not given: murine IgG2a Fc and junction, not shown: another chain or arm of the molecule; a dimerising Fc or GST)
scFv: QLQLQESGPGLVKPSETLSLTCTVSGGSINSTTSYWAWIRQPPGKGLEWIGTIFYSGKTYNNPSLKSRVTMSVDTSKNHFSLKVNSVTAADTAVYYCARFDYGFHDAFDIWGQGTMVTVSSGGGGSGGGGSGGGGSEIVMTQSPATLSLSPGERATLSCRASQSITSDYLSWYQQKPGQAPRLLIYGASTRATGIPARFSGSGSGTDFTLTISSLQPEDFVVYYCQQDYNLYTFGQGTKLEIKR
Consider B2, for which, in test [1], the Kd came out at 95.7 pM, the koff amounted to 3.94e-05 s⁻¹ and the kon amounted to 412000 M⁻¹ s⁻¹. In addition, in test [3], the Kd is 95.7 pM, the off-rate (koff) is 3.94e-05 s⁻¹ and the kon turned out to be 412000 M⁻¹ s⁻¹.

B3: anti-ROR1 scFv ROR1-3 fused to murine IgG2a Fc (scFv-mFc) (Fc fusion, part only; not given: murine IgG2a Fc and junction, not shown: another chain or arm of the molecule; a dimerising Fc or GST)
scFv: QVQLVQSGAEVKKPGASVKVSCKASGYTFTSYGISWVRQAPGQGLEWMGWISAYNGNTKYAQKLQGRVTMTTDTSTSTAYMELRSLRSDDTAVYYCARDEDILTGYNYYGMDVWGQGTTVTVSSGGGGSGGGGSGGGGSQLVLTQSPSASASLGASVKLTCTLSSGHSSYAIAWHQQQPEKGPRYLMKLNSDGSHSKGDGIPDRFSGSSSGAERYLTISSLQSEDEADYYCQTWGTGIRVFGGGTKLTVLG
In the case of B3, in test [1], the equilibrium dissociation constant (Kd) came to 924 pM, the koff stood at 1.08e-05 s⁻¹ and the kon was 11700 M⁻¹ s⁻¹. Also, in test [3], the Kd came out at 924 pM, the koff came to 1.08e-05 s⁻¹ and the kon was found to be 11700 M⁻¹ s⁻¹.

B4: anti-ROR1 scFv ROR1-4 fused to murine IgG2a Fc (scFv-mFc) (Fc fusion, part only; not given: murine IgG2a Fc and junction, not shown: another chain or arm of the molecule; a dimerising Fc or GST)
scFv: B3 scFv with V5L, N55T, K59R, D99E, D101G, I102A, L103T, G105D, N107D, T119A
As for B4, in test [1], the Kd came to 13800 pM, the koff was 0.00022 s⁻¹ and the kon was determined as 16000 M⁻¹ s⁻¹. For the same molecule, in test [3], the Kd worked out at 13800 pM, the off-rate constant (koff) was 0.00022 s⁻¹ and the kon is 16000 M⁻¹ s⁻¹.

B5: anti-ROR1 scFv ROR1-1 fused to murine IgG2a Fc (scFv-mFc) (Fc fusion, part only; not given: murine IgG2a Fc and junction, not shown: another chain or arm of the molecule; a dimerising Fc or GST)
scFv: QVQLQESGPGLVKPSETLSLTCTVSGGSISNYYWSWIRQPAGKGLEWIGRIYTSGSTNYNPSLKSRVTMSVDTSKNQFSLKLSSLTAADTAIYYCARYYDILTGFFDYWGQGTLVTVSSGGGGSGGGGSGGGGSVIWMTQSPSLLSASTGDSVTISCRMSQDISSYLAWYQQKPGKAPELLIYAASSLQSGVPSRFSGSGSGTDFTLTISSLQSEDFATYYCQQYDSFPPTFGQGTKVEFKR
In the case of B5, in test [1], the equilibrium dissociation constant (Kd) is 42000 pM, the koff came to 0.005 s⁻¹ and the kon was determined as 119000 M⁻¹ s⁻¹. For the same molecule, in test [3], the equilibrium dissociation constant (Kd) stood at 42000 pM, the dissociation rate constant (koff) was determined as 0.005 s⁻¹ and the on-rate (kon) turned out to be 119000 M⁻¹ s⁻¹.

B6: scFv-Fc of the binding domain of anti-ROR1 CAR-F (scFv SEQ ID NO:118), used on the plasma membrane protein array (Fc fusion)
chain: B5 scFv
notes: also called the scFv; not shown: Fc
On to B6, for which the binding result in test [4] was “no binding”; in test [5], “binds”.
